The results in this text go back to article PMC4820223.

The target in test [1] is UbL-mCherry-FRB-MBP proteasome adaptor.
Test [2] addresses UbL-mCherry-GAI(1-92) proteasome adaptor (UniProt Q9LQT8).

In turn, FKBP-GFP-tail target protein came in with a depletion of the GFP target (GFP fluorescence by flow cytometry) in HEK293 cells after 4 h with 1, 2 or 5 uM rapalog; dimerisation bridged by rapalog in test [1] of 90%.

Take GID1-GFP-tail target protein: the depletion of the GFP target (GFP fluorescence by flow cytometry) in HEK293 cells after 24 h with 10 to 50 uM and higher GA3-AM; dimerisation bridged by gibberellin GA3 in test [2] worked out at 80%.
